{"source": "paper PMC4433907", "about": "“Heterologous expression and characterization of laccase 2 from Coprinopsis cinerea capable of decolourizing different recalcitrant dyes” (Biotechnology, Biotechnological Equipment, 2014)", "proteins": {"B1": {"name": "CcLcc2 (laccase 2) (Coprinopsis cinerea okayama7#130) (protein)", "chain": "AIGPSTNLVVANKVIAPDGFSRSAVLAGATQPTVQFPGPVIQGNKNSFFAINVIDALTDPTMLRTTSIHWHGMFQRGTAWADGPAGVTQCPISPGHSFLYKFQALNQAGTFWYHSHHESQYCDGLRGAMVVYDPVDPHRNLYDIDNEATIITLADWYHVPAPSAGLVPTPDSTLINGKGRYAGGPTVPLAVISVTRNRRYRFRLVSLSCDPNYVFSIDGHTMTVIEVDGVNVQPLVVDSIQIFAGQRYSFVLNANRPVGNYWVRANPNIGTTGFVGGVNSAILRYVGASNTDPTTTQTPFSNPLLETNLHPLTNPAAPGLPTPGGVDVAINLNTVFDFSSLTFSVNGATFHQPPVPVLLQIMSGAQTAQQLLPSGSVYVLPRNKVIELSMPGGSTGSPHPFHLHGHEFAVVRSAGSSTYNFANPVRRDVVSAGVAGDNVTIRFRTDNPGPWILHCHIDWHLVLGLAVVFAEDAPTVATMDPPPAWDQLCPIYDALPPNT"}}, "experiment_in_all_cases": "purified protein", "key": {"[1]": {"substrate": "COc1cccc(OC)c1O", "assay_type": "biochemical, Coprinopsis cinerea", "conditions": "McIlvaine buffer, 30 °C, 10 min, apparent Km"}, "[2]": {"substrate": "CCn1c(=NN=c2sc3cc(S(=O)(=O)O)ccc3n2CC)sc2cc(S(=O)(=O)O)ccc21", "assay_type": "biochemical, Coprinopsis cinerea", "conditions": "McIlvaine buffer (pH 2.6 in the standard assay), 30 °C, 10 min, apparent Km"}, "[3]": {"substrate": "COc1ccccc1O", "conditions": "McIlvaine buffer, 30 °C, 10 min, apparent Km"}}}
{"protein": "B1", "values": [{"measurement": "Km", "setting": "[1]", "value": 1020, "unit": "µM"}, {"measurement": "Vmax", "setting": "[1]", "value": 57.5, "unit": "µmol/min/mg"}, {"measurement": "kcat", "setting": "[1]", "value": 73, "unit": "s⁻¹"}, {"measurement": "kcat/Km", "setting": "[1]", "value": 71600, "unit": "M⁻¹ s⁻¹"}, {"measurement": "Km", "setting": "[2]", "value": 930, "unit": "µM"}, {"measurement": "Vmax", "setting": "[2]", "value": 667, "unit": "µmol/min/mg"}, {"measurement": "kcat", "setting": "[2]", "value": 847, "unit": "s⁻¹"}, {"measurement": "kcat/Km", "setting": "[2]", "value": 911000, "unit": "M⁻¹ s⁻¹"}, {"measurement": "Km", "setting": "[3]", "value": 28070, "unit": "µM"}, {"measurement": "Vmax", "setting": "[3]", "value": 2.46, "unit": "µmol/min/mg"}, {"measurement": "kcat", "setting": "[3]", "value": 3.12, "unit": "s⁻¹"}, {"measurement": "kcat/Km", "setting": "[3]", "value": 111, "unit": "M⁻¹ s⁻¹"}]}
